Test results from publication PMC6146392 (Metallomics : integrated biometal science, 2018).
Like-named read-outs stand apart in the source and are kept apart here.

Columns and labels:
Test in all cases: ITC
[1] = target: T1, H.s. GLRX5 lacking the first 31 amino acids (Δ1-31) (human, UniProt Q86SX6 32-157)
T1 sequence (looked up): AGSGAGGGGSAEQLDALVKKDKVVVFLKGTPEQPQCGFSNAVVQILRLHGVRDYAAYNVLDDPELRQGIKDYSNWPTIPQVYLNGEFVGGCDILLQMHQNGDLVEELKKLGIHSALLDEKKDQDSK

[2] = target: S.c. Grx3 (residues 36-285, Trx-like and Grx-like domains) (S. cerevisiae)
[3] = target: S.c. Grx3 (residues 36-285, Trx-like and Grx-like domains) (S. cerevisiae); remark: listed apart in the source

- Ka [1]: 120000 M⁻¹
- dH [1]: -0.518 ± 0.0342 kcal/mol
- stoichiometry N [1]: 1.02 ± 0.05
- Ka [2]: 150000 M⁻¹
- dH [2]: -0.787 kcal/mol
- stoichiometry N [2]: 0.98
- Kd [3]: 6.7 µM
- stoichiometry N [3]: 0.94
B1: human BOLA3 (residues 25-107, lacking the mitochondrial targeting sequence) (natural protein, UniProt Q53S33 25-107, looked up)
chain: MFATQTEGELRVTQILKEKFPRATAIKVTDISGGCGAMYEIKIESEEFKEKRTVQQHQMVNQALKEEIKEMHGLRIFTSVPKR
